Patent publication US20240209076A1 (KODIAK SCIENCES, published 2024)

B1: anti-IL-6 antibody, light chain S55W (heavy chain WT) (antibody, V domains shown)
VH: EVQLVESGGGLVQPGGSLRLSCAASGFTFSPFAMSWVRQAPGKGLEWVAKISPGGSWTYYSDTVTGRFTFSLDTSKSTAYLQMNSLRAEDTAVYYCARQLWGYYALDIWGQGTLVTVSS
VL: DIQLTQSPSSLSASVGDRVTITCSASISVSYMYWYQQKPGKAPKLLIYDMSNLAWGVPSRFSGSGSGTDFTLTISSLQPEDFATYYCMQWSGYPYTFGQGTKVEIK
notes: See note of m2; also called WT / S55W
B2: anti-IL-6 antibody, light chain Y31F (heavy chain WT) (antibody, V domains shown)
VH: EVQLVESGGGLVQPGGSLRLSCAASGFTFSPFAMSWVRQAPGKGLEWVAKISPGGSWTYYSDTVTGRFTFSLDTSKSTAYLQMNSLRAEDTAVYYCARQLWGYYALDIWGQGTLVTVSS
VL: DIQLTQSPSSLSASVGDRVTITCSASISVSFMYWYQQKPGKAPKLLIYDMSNLASGVPSRFSGSGSGTDFTLTISSLQPEDFATYYCMQWSGYPYTFGQGTKVEIK
notes: See note of m2; also called WT / Y31F
B3: anti-IL-6 antibody, light chain S55L (heavy chain WT) (antibody, V domains shown)
VH: EVQLVESGGGLVQPGGSLRLSCAASGFTFSPFAMSWVRQAPGKGLEWVAKISPGGSWTYYSDTVTGRFTFSLDTSKSTAYLQMNSLRAEDTAVYYCARQLWGYYALDIWGQGTLVTVSS
VL: DIQLTQSPSSLSASVGDRVTITCSASISVSYMYWYQQKPGKAPKLLIYDMSNLALGVPSRFSGSGSGTDFTLTISSLQPEDFATYYCMQWSGYPYTFGQGTKVEIK
notes: See note of m2; also called WT / S55L
B4: anti-IL-6 antibody, light chain Y48W (heavy chain WT) (antibody, V domains shown)
VH: EVQLVESGGGLVQPGGSLRLSCAASGFTFSPFAMSWVRQAPGKGLEWVAKISPGGSWTYYSDTVTGRFTFSLDTSKSTAYLQMNSLRAEDTAVYYCARQLWGYYALDIWGQGTLVTVSS
VL: DIQLTQSPSSLSASVGDRVTITCSASISVSYMYWYQQKPGKAPKLLIWDMSNLASGVPSRFSGSGSGTDFTLTISSLQPEDFATYYCMQWSGYPYTFGQGTKVEIK
notes: See note of m2; also called WT / Y48W
B5: anti-IL-6 antibody, light chain Y95I (heavy chain WT) (antibody, V domains shown)
VH: EVQLVESGGGLVQPGGSLRLSCAASGFTFSPFAMSWVRQAPGKGLEWVAKISPGGSWTYYSDTVTGRFTFSLDTSKSTAYLQMNSLRAEDTAVYYCARQLWGYYALDIWGQGTLVTVSS
VL: DIQLTQSPSSLSASVGDRVTITCSASISVSYMYWYQQKPGKAPKLLIYDMSNLASGVPSRFSGSGSGTDFTLTISSLQPEDFATYYCMQWSGYPITFGQGTKVEIK
notes: See note of m2; also called WT / Y95I
B6: anti-IL-6 antibody, light chain Y31G (heavy chain WT) (antibody, V domains shown)
VH: EVQLVESGGGLVQPGGSLRLSCAASGFTFSPFAMSWVRQAPGKGLEWVAKISPGGSWTYYSDTVTGRFTFSLDTSKSTAYLQMNSLRAEDTAVYYCARQLWGYYALDIWGQGTLVTVSS
VL: DIQLTQSPSSLSASVGDRVTITCSASISVSGMYWYQQKPGKAPKLLIYDMSNLASGVPSRFSGSGSGTDFTLTISSLQPEDFATYYCMQWSGYPYTFGQGTKVEIK
notes: See note of m2; also called WT / Y31G
B7: anti-IL-6 antibody, parent sequence (heavy chain WT, light chain WT) (antibody, V domains shown)
VH: EVQLVESGGGLVQPGGSLRLSCAASGFTFSPFAMSWVRQAPGKGLEWVAKISPGGSWTYYSDTVTGRFTFSLDTSKSTAYLQMNSLRAEDTAVYYCARQLWGYYALDIWGQGTLVTVSS
VL: DIQLTQSPSSLSASVGDRVTITCSASISVSYMYWYQQKPGKAPKLLIYDMSNLASGVPSRFSGSGSGTDFTLTISSLQPEDFATYYCMQWSGYPYTFGQGTKVEIK
notes: Tested as full antibody from Expi293 cells in an engineered human IgG1 framework (L234A, L235A, G237A, L443C, EU); also called wild-type; parent molecule
B8: anti-IL-6 antibody, heavy chain D62Q, light chain WT (antibody, IgG1, V domains shown)
VH: EVQLVESGGGLVQPGGSLRLSCAASGFTFSPFAMSWVRQAPGKGLEWVAKISPGGSWTYYSQTVTGRFTFSLDTSKSTAYLQMNSLRAEDTAVYYCARQLWGYYALDIWGQGTLVTVSS
VL: DIQLTQSPSSLSASVGDRVTITCSASISVSYMYWYQQKPGKAPKLLIYDMSNLASGVPSRFSGSGSGTDFTLTISSLQPEDFATYYCMQWSGYPYTFGQGTKVEIK
notes: Full IgG1 tested; V domains derived as in m2
B9: anti-IL-6 antibody, heavy chain D107E, light chain WT (antibody, IgG1, V domains shown)
VH: EVQLVESGGGLVQPGGSLRLSCAASGFTFSPFAMSWVRQAPGKGLEWVAKISPGGSWTYYSDTVTGRFTFSLDTSKSTAYLQMNSLRAEDTAVYYCARQLWGYYALEIWGQGTLVTVSS
VL: DIQLTQSPSSLSASVGDRVTITCSASISVSYMYWYQQKPGKAPKLLIYDMSNLASGVPSRFSGSGSGTDFTLTISSLQPEDFATYYCMQWSGYPYTFGQGTKVEIK
notes: as for B8

Biological target: T1, recombinant human IL-6 (human, UniProt P05231 30-212)
T1 construct: Bought protein
Assay: SPR Biacore, supernatant Ab on Protein A chip, IL-6 analyte, 25 C
Protocol: (§1) Antibodies were captured on a Protein A chip (GE) by injecting 1:20 dilution of cell supernatant at 10 μL/min for 60 seconds. […] The sensor chip was regenerated by a 60 seconds injection of 10 mM Glycine pH 1.7 at flow rate of 50 μL/min. […] For this setup, 1 μg/mL of purified antibody was injected over a Protein A chip at 10 μL/min for 25-28 seconds. Data analysis for supernatant and purified samples were performed using BIAevaluation software (GE). All sensorgrams were double reference subtracted and fit using a 1:1 Langmuir binding model.
T1 sequence (P05231 30-212 limits assumed): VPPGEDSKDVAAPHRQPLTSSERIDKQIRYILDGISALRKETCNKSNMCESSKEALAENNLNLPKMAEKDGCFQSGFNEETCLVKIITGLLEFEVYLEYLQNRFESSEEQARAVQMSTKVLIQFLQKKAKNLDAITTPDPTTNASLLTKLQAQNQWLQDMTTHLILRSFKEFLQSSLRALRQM

| Kd [pM] | koff [s⁻¹] | kon [M⁻¹ s⁻¹] | Binder |
| --- | --- | --- | --- |
| 401 | 0.000226 | 563000 | B1 |
| 472 | 0.000138 | 292000 | B2 |
| 329 | 0.00022 | 668000 | B3 |
| 356 | 0.000123 | 345000 | B4 |
| 7480 | 0.00444 | 593000 | B5 |
| 666 | 0.000203 | 305000 | B6 |

Biological target: T2, recombinant human IL-6 (human, UniProt P05231 30-212)
T2 construct: Flowed in solution over the captured antibodies
Assay: SPR (Biacore), purified IgG on Protein A, 37 C
Protocol: as §1
T2 sequence (P05231 30-212 limits assumed): as above

| Kd [pM] | koff [s⁻¹] | kon [M⁻¹ s⁻¹] | Binder |
| --- | --- | --- | --- |
| 158 | 0.000139 | 880000 | B7 |
| 687 | 0.000601 | 875000 | B8 |
| 527 | 0.000402 | 762000 | B9 |

Biological target: T2, recombinant human IL-6
Assay: SPR (Biacore), supernatant IgG on Protein A, 25 C
Protocol: as §1

| Kd [pM] | koff [s⁻¹] | kon [M⁻¹ s⁻¹] | Binder |
| --- | --- | --- | --- |
| 399 | 0.000126 | 315000 | B7 |
| 366 | 0.000148 | 403000 | B8 |
| 290 | 0.000147 | 509000 | B9 |
